For assay [1], the target named is T1, MBP-RAMP1 ECD-(GS)5-CLR ECD-H6 fusion protein (human, UniProt O60894 24-111; Q16602 29-144).
T1 construct: range 24-111;range 29-144; Tethered ECD fusion made in E. coli; used in the FP assay at 15 nM; also called MBP-hRAMP1.24-111-(Gly-Ser)5-hCLR.29-144-H6
The experiment in a line: FP competition vs FITC-AM W/W probe, purified ECD fusion. How it is done:
(§1) Fluorescence polarization peptide binding assay. […] The reactions (50 μL) were incubated for 2 hours at room temperature to reach equilibrium, and the anisotropy was measured in black half-area 96-well plates using a BMG LABTECH's POLARstar® Omega plate reader (Ortenberg, Germany). The reaction buffer was 50 mM HEPES, pH 7.5, 150 mM NaCl, 0.5 mg/ml fatty acid-free BSA, 0.5 mM EDTA, 0.5 mM maltose. KI values were calculated using nonlinear regression fitting of the competition curves to the exact analytical equations of Roehrl et al. (Biochemistry (2004) 43:16056-66) using GraphPad Prism 5.0 (GraphPad Software, San Diego Calif.).
(§2) The large size difference between the MBP-RAMP ECD-CLR ECD fusion proteins (˜65 kDa) and the probe (˜2.5 kDa) ensures a significant anisotropy difference between bound and free states of the probe. […] Kd values for the probe at each of the tethered ECD fusion proteins were determined in equilibrium saturation binding experiments (data not shown), and KI values were determined for unlabeled peptides in equilibrium competition experiments (Table 1; FIGS. 2-5). The data were analyzed according to exact analytical equations using non-linear regression curve fitting in GraphPad Prism 5.0 (GraphPad Software) via user-defined equations.

Assay [2] addresses T1, MBP-RAMP1 ECD-(GS)5-CLR ECD-H6 fusion …. The assay can be described thus: FP (anisotropy) competition: displaces FITC-Ahx-AM(37-52)NH2[S45W,Q50W] probe (7 nM) from MBP-RAMP1 ECD-(GS)5-CLR ECD-H6 (15 nM) [A-C) panel B]. As for the experimental part:
as §1
as §1, with “Single representative experiments conducted with duplicate samples are shown.” for “Fluorescence polarization peptide binding assay.”, “reactions” for “reactions (50 μL)”

Assay [3] has as its target MBP-RAMP2 ECD [L106R]-(GS)5-CLR ECD-H6 fusion protein (human) (UniProt O60895). The experiment in a line: FP competition vs FITC-AM W/W probe, purified ECD fusion.
The target in assay [4] is T1, MBP-RAMP1 ECD-(GS)5-CLR ECD-H6 fusion …. The assay can be described thus: ratio of FP KI values at the two ECD complexes. As for the experimental part:
as §1, §2

For assay [5] the target is unchanged. The experiment in a line: FP (anisotropy) competition: displaces FITC-Ahx-AM(37-52)NH2[S45W,Q50W] probe (7 nM) from MBP-RAMP1 ECD-(GS)5-CLR ECD-H6 (15 nM) [A-C) panel C]. As for the experimental part: as §1
as §1, with “Single representative experiments conducted with duplicate samples are shown.” for “Fluorescence polarization peptide binding assay.”, “reactions” for “reactions (50 μL)”

Assay [6] shares this target. The experiment in a line: FP (anisotropy) competition: displaces FITC-Ahx-AM(37-52)NH2[S45W,Q50W] probe (7 nM) from MBP-RAMP1 ECD-(GS)5-CLR ECD-H6 (15 nM) [I-J) lower graph]. How it is done:
as §1

Assay [7] concerns the target MBP-RAMP2 ECD [L106R]-(GS)5-CLR ECD-H6 fusion protein (human) (UniProt O60895). The experiment in a line: FP (anisotropy) competition: displaces FITC-Ahx-AM(37-52)NH2[S45W,Q50W] probe (7 nM) from MBP-RAMP2 ECD[L106R]-(GS)5-CLR ECD-H6 (110 nM) [I-K) panel I].
Assay [8] addresses T1, MBP-RAMP1 ECD-(GS)5-CLR ECD-H6 fusion …. The assay can be described thus: FP (anisotropy) competition: displaces FITC-Ahx-AM(37-52)NH2[S45W,Q50W] probe (7 nM) from MBP-RAMP1 ECD-(GS)5-CLR ECD-H6 (15 nM) [F-H) panel H]. How it is done:
as §1

For assay [9] the target is unchanged. The assay can be described thus: FP (anisotropy) competition: displaces FITC-Ahx-AM(37-52)NH2[S45W,Q50W] probe (7 nM) from MBP-RAMP1 ECD-(GS)5-CLR ECD-H6 (15 nM) [D-E) panel D]. As for the experimental part:
as §1

The target is the same in assay [10]. The assay can be described thus: FP (anisotropy) competition: displaces FITC-Ahx-AM(37-52)NH2[S45W,Q50W] probe (7 nM) from MBP-RAMP1 ECD-(GS)5-CLR ECD-H6 (15 nM) [D-E) panel E]. How it is done:
as §1

For assay [11] the target is unchanged. The experiment in a line: FP (anisotropy) competition: displaces FITC-Ahx-AM(37-52)NH2[S45W,Q50W] probe (7 nM) from MBP-RAMP1 ECD-(GS)5-CLR ECD-H6 (15 nM) [A-C) panel C]. How it is done: as §1
The source holds these as a separate data set.

The target of assay [12] is MBP-RAMP2 ECD [L106R]-(GS)5-CLR ECD-H6 fusion protein (human) (UniProt O60895). The experiment in a line: FP (anisotropy) competition: displaces FITC-Ahx-AM(37-52)NH2[S45W,Q50W] probe (7 nM) from MBP-RAMP2 ECD[L106R]-(GS)5-CLR ECD-H6 (110 nM) [I-K) panel J].
Sequence of MBP-RAMP2 ECD [L106R]-(GS)5-CLR ECD-H6 fusion protein (human) (O60895 other isoform, or with tags, fused parts or gaps L106R L106R): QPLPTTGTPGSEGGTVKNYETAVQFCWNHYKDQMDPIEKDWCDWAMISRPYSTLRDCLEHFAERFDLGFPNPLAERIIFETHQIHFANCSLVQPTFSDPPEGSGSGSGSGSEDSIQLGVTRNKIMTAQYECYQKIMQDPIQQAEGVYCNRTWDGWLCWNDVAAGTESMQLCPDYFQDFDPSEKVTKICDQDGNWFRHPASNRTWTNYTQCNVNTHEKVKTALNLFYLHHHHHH
Assay [13] concerns the target T1, MBP-RAMP1 ECD-(GS)5-CLR ECD-H6 fusion …. The assay can be described thus: FP (anisotropy) competition: displaces FITC-Ahx-AM(37-52)NH2[S45W,Q50W] probe (7 nM) from MBP-RAMP1 ECD-(GS)5-CLR ECD-H6 (15 nM) [I-J) upper graph]. As for the experimental part:
as §1

Where no end group is shown, it is not given here.

T1 sequence (O60894 other isoform, or with tags, fused parts or gaps limits assumed, form in doubt): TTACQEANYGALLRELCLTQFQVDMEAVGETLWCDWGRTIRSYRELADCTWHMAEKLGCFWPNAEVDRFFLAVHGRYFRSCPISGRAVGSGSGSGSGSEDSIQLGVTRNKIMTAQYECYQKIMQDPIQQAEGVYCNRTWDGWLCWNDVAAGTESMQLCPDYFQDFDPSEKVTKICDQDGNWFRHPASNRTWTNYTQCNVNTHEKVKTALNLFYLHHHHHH

Turning to FVPTDVGPFSF-NH2 [CGRP(27-37)NH2 [N31D, S34P, K35F, A36S]], in [1], the Ki – broadly, a dissociation constant, usually derived from enzyme kinetics or from competition with a known ligand – amounted to 2.95 nM and the pKI was found to be 8.53. Further, the “IC50 (read off the curve)” value in [2] was roughly 20 nM.
For the molecule FVPTDVGPWSY-NH2 [CGRP(27-37)NH2 [N31D, S34P, K35W, A36S, F37Y]], in [3], the Ki was determined as 324 nM and the pKI is 6.49. Also, the “Receptor Selectivity (fold, over RAMP2-CLR ECD)” value in assay [4] was determined as 245 fold. Further, in [1], the Ki stood at 1.32 nM and the pKI worked out at 8.88. Besides, the “IC50 (read off the curve)” value in assay [5] was roughly 20 nM.
For the molecule FVPTDVGPWAF-NH2 [CGRP(27-37)NH2 [N31D, S34P, K35W]], in [1], the Ki amounted to 8.13 nM and the pKI amounted to 8.09. In [2], the “IC50 (read off the curve)” value was roughly 20 nM.
As for FVPTDTGPWGY-NH2 [CGRP(27-37)NH2 [N31D, V32T, S34P, K35W, A36G, F37Y]], in [3], the Ki is 14500 nM and the pKI was determined as 4.84. Further, in [4], the “Receptor Selectivity (fold, over RAMP2-CLR ECD)” value came out at 821 fold. Also, in assay [1], the Ki was found to be 17.6 nM and the pKI came out at 7.75.

B1: AM(37-52) D37V/S45W/K46L/Q50W/Y52F (peptide)
peptide: VKDNVAPRWLISPWGF-NH2
notes: also called AM(37-52)NH2 [D37V, S45W, K46L, Q50W, Y52F]
Take B1: the “IC50 (read off the curve)” value in [6] was roughly 10 nM.

B2: AM(37-52) S45R/K46L/Q50W (peptide)
peptide: DKDNVAPRRLISPWGY-NH2
notes: also called AM(37-52)NH2 [S45R, K46L, Q50W]
Turning to B2, the results for the IC50 (read off the curve) in [7] and in assay [8] were 300 nM and roughly 90 nM, respectively.
In assay [3], DKFNVAPRSLISPWGF-NH2 [AM(37-52)NH2 [D39F, K46L, Q50W, Y52F]] had a Ki of 30300 nM and a pKI of 4.55. The “Receptor Selectivity (fold, over RAMP2-CLR ECD)” value in [4] turned out to be 1210 fold. In assay [1], this molecule registered a Ki of 25 nM and a pKI of 7.61. Besides, the “IC50 (read off the curve)” value in [9] was roughly 80 nM.
As for DKDNVAPRWWISPWGF-NH2 [AM(37-52)NH2 [S45W, K46W, Q50W, Y52F]], in assay [3], the Ki turned out to be 16600 nM and the pKI came out at 4.78. Further, the “Receptor Selectivity (fold, over RAMP2-CLR ECD)” value in assay [4] was 692 fold. In [1], this molecule registered a Ki of 24 nM and a pKI of 7.62. For the same molecule, the “IC50 (read off the curve)” value in [10] is roughly 70 nM.
Turning to DKDNVAPRSLISPWGY-NH2 [AM(37-52)NH2 [K46L, Q50W]], in assay [3], the Ki was found to be 1660 nM and the pKI amounted to 5.78. In assay [4], the “Receptor Selectivity (fold, over RAMP2-CLR ECD)” value is 23 fold. In assay [1], this molecule gave a Ki of 70.8 nM and a pKI of 7.15. Also, the “IC50 (read off the curve)” value in [11] is roughly 100 nM.
For DKFNVAPRSLISPWGY-NH2 [AM(37-52)NH2 [D39F, K46L, Q50W]], the values for the Ki in assay [3] and in assay [1] were 1830 nM and 82.2 nM, respectively. Besides, the pKI in assay [3] was determined as 5.74; in assay [1], 7.1. Also, the “Receptor Selectivity (fold, over RAMP2-CLR ECD)” value in assay [4] worked out at 22 fold. Also, the “IC50 (read off the curve)” value in assay [9] was roughly 200 nM.
In assay [3], DKDNVAPRTWISPWGY-NH2 [AM(37-52)NH2[S45T, K46W, Q50W]] displayed a Ki of 12500 nM and a pKI of 4.9. Further, the “Receptor Selectivity (fold, over RAMP2-CLR ECD)” value in assay [4] turned out to be 28 fold. Also, in assay [1], the Ki is 440 nM and the pKI worked out at 6.36.

B3: AM(37-52) S45R/K46L/S48G/Q50W (peptide)
peptide: DKDNVAPRRLIGPWGY-NH2
notes: also called AM(37-52)NH2 [S45R, K46L, S48G, Q50W]
Take B3: the IC50 (read off the curve) in assay [12] was 90 nM; in assay [13], roughly 20 nM.

B4: AM(37-52) S45R/K46W/S48G/Q50W (peptide)
peptide: DKDNVAPRRWIGPWGY-NH2
notes: also called AM(37-52)NH2 [S45R, K46W, S48G, Q50W]
Take B4: the IC50 (read off the curve) in [12] is 700 nM; in assay [13], roughly 100 nM.

B5: AM(37-52) S45R/K46W/Q50W (peptide)
peptide: DKDNVAPRRWISPWGY-NH2
notes: also called AM(37-52)NH2 [S45R, K46W, Q50W]
As for B5, the IC50 (read off the curve) in assay [7] is 2000 nM; in assay [8], roughly 300 nM.
On to DKDNVAPRSLISPWGF-NH2 [AM(37-52)NH2 [K46L, Q50W, Y52F]], for which, in [3], the Ki came to 89100 nM and the pKI turned out to be 4.05. Besides, the “Receptor Selectivity (fold, over RAMP2-CLR ECD)” value in [4] was 2820 fold. In assay [1], affinity was put at a Ki of 31.6 nM and the pKI was 7.5. For the same molecule, the “IC50 (read off the curve)” value in assay [11] is roughly 100 nM.

B6: AM(37-52) S45R/K46W/I47L/S48G/Q50W (peptide)
peptide: DKDNVAPRRWLGPWGY-NH2
notes: also called AM(37-52)NH2 [S45R, K46W, I47L, S48G, Q50W]
Take B6: the IC50 (read off the curve) in assay [12] was 1000 nM; in assay [13], roughly 100 nM.
In the case of DKDNVAPRWMISPWGF-NH2 [AM(37-52)NH2 [S45W, K46M, Q50W, Y52F]], the inhibition constant Ki amounted to 7760 nM in assay [3] and 7.94 nM in assay [1]. The values for the pKI in assay [3] and in assay [1] were 5.11 and 8.1, respectively. Also, the “Receptor Selectivity (fold, over RAMP2-CLR ECD)” value in assay [4] is 977 fold. In assay [10], the “IC50 (read off the curve)” value is roughly 30 nM.
In assay [3], DKKNVAPRSKISPQGY-NH2 [AM(37-52)NH2 [D39K]] displayed a Ki of 6100 nM and a pKI of 5.22.

The values above are taken from patent US20180141989A1 (BOARD OF REGENTS OF THE UNIVERSITY OF OKLAHOMA, published 2018).
